Among the data in patent publication US20240132619A1 are Affinity values, retold here.

Test [1] addresses human serum albumin (HSA) (human) (UniProt P02768). Kind of test: ELISA, HSA coated on plate, n = 3. On the technique in general: ELISA stands for enzyme-linked immunosorbent assay.
The target in test [2] is mouse serum albumin (MSA) (mouse) (UniProt P07724). Briefly: ELISA, MSA coated on plate, n = 3.
UniProt P07724, sequence (P07724 25-608 limits assumed): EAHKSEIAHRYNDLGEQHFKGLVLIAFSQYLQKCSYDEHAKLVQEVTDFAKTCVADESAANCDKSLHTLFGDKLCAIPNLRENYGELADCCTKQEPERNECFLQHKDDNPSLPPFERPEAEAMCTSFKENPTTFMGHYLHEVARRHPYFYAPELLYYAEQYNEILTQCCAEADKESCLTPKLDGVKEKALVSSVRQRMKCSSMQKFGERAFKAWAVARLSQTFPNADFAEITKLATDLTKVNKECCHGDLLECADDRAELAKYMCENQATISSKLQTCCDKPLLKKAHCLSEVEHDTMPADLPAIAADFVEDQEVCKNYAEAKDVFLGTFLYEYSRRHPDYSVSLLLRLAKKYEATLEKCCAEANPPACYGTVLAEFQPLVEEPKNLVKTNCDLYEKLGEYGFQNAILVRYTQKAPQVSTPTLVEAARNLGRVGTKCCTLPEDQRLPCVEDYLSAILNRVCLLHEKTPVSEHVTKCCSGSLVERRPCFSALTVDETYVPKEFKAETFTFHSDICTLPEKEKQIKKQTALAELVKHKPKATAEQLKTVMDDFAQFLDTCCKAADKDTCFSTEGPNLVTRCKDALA

UniProt P02768, sequence (P02768 25-609 limits assumed): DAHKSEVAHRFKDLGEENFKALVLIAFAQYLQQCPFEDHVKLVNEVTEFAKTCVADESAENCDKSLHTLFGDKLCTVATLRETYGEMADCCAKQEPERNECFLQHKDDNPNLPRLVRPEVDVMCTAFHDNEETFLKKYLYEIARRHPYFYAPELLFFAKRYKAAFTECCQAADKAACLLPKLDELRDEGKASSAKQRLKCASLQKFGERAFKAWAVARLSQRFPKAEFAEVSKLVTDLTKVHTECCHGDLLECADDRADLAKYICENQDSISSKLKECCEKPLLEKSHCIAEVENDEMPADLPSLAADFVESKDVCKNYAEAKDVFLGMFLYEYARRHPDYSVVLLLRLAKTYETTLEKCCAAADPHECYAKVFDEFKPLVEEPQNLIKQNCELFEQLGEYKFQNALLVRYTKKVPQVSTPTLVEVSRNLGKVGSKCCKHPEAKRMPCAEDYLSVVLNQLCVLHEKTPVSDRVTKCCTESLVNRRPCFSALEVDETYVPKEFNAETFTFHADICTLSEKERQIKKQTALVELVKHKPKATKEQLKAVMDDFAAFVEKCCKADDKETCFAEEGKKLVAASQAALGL

With SS1-ABD-dsFv-PE38 (LMB-209), the results for the Affinity in test [1] and in test [2] were 0.11 nM and 0.16 nM, respectively.
